Experimental data from patent US20200362021A1 (PHANES THERAPEUTICS, published 2020).
Positions count from the first letter of the chain named.

Columns and labels:
[1] = target: T1, biotin-apelin-13 (biotin-…) (N-terminal biotin); assay: SPR (Biacore), biotin-apelin-13 on streptavidin CM5 chip, mAb at 12.5-100 nM
T1 construct: also called Biotin-APL13
Method: Anti-apelin mAbs at four different concentrations (12.5 nM, 25 nM, 50 nM and 100 nM) were captured on the chip surface. The on- and off-rate for antibody-antigen binding were measured, curve fitted and calculated.

[2] = target: T2, 9-13; assay: competition ELISA, captured mAb, peptide competes with biotin-apelin-13, A405
T2 construct: also called apelin peptide 9-13 (GPMPF)
T2 peptide: GPMPF
Method: (§1) Goat-anti-rabbit IgG was immobilized on an ELISA plate.
(§2) The antibody binding sites for anti-apelin mAbs C8, C24, and C25 were mapped using an ELISA-based peptide competition assay. […] Each of the competition peptides (Table 7) was assessed for its ability to inhibit biotin-apelin-13 binding to the mAb. An inhibition signal reflects the ability of the competition peptide to bind to the mAb in solution.
(§3) For the peptide competition assay, goat anti-rabbit IgG in carbonate coating buffer was coated on high binding ELISA plates at 1 μg/ml overnight. […] After incubation at room temperature for 60 minutes, the plates were washed and then streptavidin-conjugated to alkaline phosphatase was added, and the binding was detected by adding PNPP substrate and reading absorbance of ELISA plates at 405 nm. Each competition peptide or control sample was assayed in duplicate for a given mAb. […] “No comp:” no competition peptide was added; “No Ab, No Comp:” neither competition peptide nor anti-apelin mAb was added.

[3] = target: T3, 10-13; assay: as above
T3 construct: also called apelin peptide 10-13 (PMPF)
T3 peptide: PMPF
Method: as §1, §2, §3

[4] = target: T4, apelin peptide 1-12 (QRPRLSHKGPMP); assay: as above
T4 peptide: QRPRLSHKGPMP
Method: as §1, §2, §3

[5] = target: T5, apelin peptide 3-13 (PRLSHKGPMPF); assay: as above
T5 peptide: PRLSHKGPMPF
Method: as §1, §2, §3

[6] = target: T6, apelin peptide 4-13 (RLSHKGPMPF); assay: as above
T6 peptide: RLSHKGPMPF
Method: as §1, §2, §3

[7] = target: T7, apelin peptide 5-13 (LSHKGPMPF); assay: as above
T7 peptide: LSHKGPMPF
Method: as §1, §2, §3

[8] = target: T8, apelin peptide 6-13 (SHKGPMPF); assay: as above
T8 peptide: SHKGPMPF
Method: as §1, §2, §3

[9] = target: T9, apelin peptide 7-13 (HKGPMPF); assay: as above
T9 peptide: HKGPMPF
Method: as §1, §2, §3

[10] = target: T10, apelin peptide 8-13 (KGPMPF); assay: as above
T10 peptide: KGPMPF
Method: as §1, §2, §3

[11] = target: T11, apelin peptide 2-13 (RPRLSHKGPMPF); assay: as above
T11 peptide: RPRLSHKGPMPF
Method: (§4) Goat anti-rabbit IgG was immobilized on an ELISA plate. […] Several competition peptides were used as controls.
as §3

[12] = target: alanine scanning peptide 8A (AGPMPF); assay: as above
Method: as §4, §3

[13] = target: alanine scanning peptide 9A (KAPMPF); assay: as above
Method: as §4, §3

[14] = target: T12, alanine scanning peptide 10A (KGAMPF); assay: as above
T12 peptide: KGAMPF
Method: as §4, §3

[15] = target: T13, alanine scanning peptide 13A (KGPMPA); assay: as above
T13 peptide: KGPMPA
Method: as §4, §3

[16] = target: apelin 13 (competition peptide 1-13, …); assay: cell-based or functional assay
[17] = target: T14, pyro-apelin 13 (N-terminal pyroglutamate); assay: cell-based or functional assay
T14 peptide: ERPRLSHKGPMPF

[18] = target: T1, biotin-apelin-13 (biotin-…); assay: SPR (Biacore) with biotin-apelin-13, humanized IgG1 mAb in HEK293 supernatant
Source text: The rabbit anti-apelin mAb C8 was humanized to reduce the potential of immunogenicity when used in human patients. The sequences of the variable regions of the heavy and light chains (VH and VL) were compared with the human antibody sequences in the Protein Data Bank (PDB) database and a homology model was built by applying SWISS-modeling. The CDRs in both the heavy and light chains of the rabbit mAb were grafted into human frameworks that have the highest possibility of maintaining the proper structure likely required for antigen binding. Backmutations from human residue to rabbit residue were designed when necessary. The sequences of the humanized VH and VL regions are shown in Table 11 and Table 12, respectively. The humanized VH and VL regions were fused to human IgG1 heavy chain and kappa light chain constant regions, respectively, to generate humanized mAbs. Constructs corresponding to the mAb sequences were used for transient transfection in HEK 293 cells and the supernatants were analyzed for the affinity of each humanized mAb for apelin.

[19] = target: T1, biotin-apelin-13 (biotin-…); assay: ELISA, increasing concentrations of IgG4 mAb immobilized on plate, biotin-apelin-13 added, streptavidin-AP detection
Source text: Two additional humanized mAbs (B24 and B25) were generated with sequence modifications on A31. […] The binding was then detected by adding PNPP substrate and reading absorbance of the ELISA plates at 405 nm.

B1: anti-apelin mAb C8 (antibody, V domains shown)
VH: QSVEESGGRLVTPGTPLTLTCTVSGIDLYSNRMSWVRQAPGKGLEWIGSIGSSPWYASWAQGRFTISKTSSTTVNLKITSPTTEDTATYFCAKGGYRPGASVWGPGTLVTVSS
VL: QVLTQTESPVSAPVGGTVTIACQSSQSVYDNNDLAWYQQKAGQTPKRLIYLASSLDSGVPSRFKGSGSGTEFTLTISDLECDDAATYYCAGGYSGDIYTFGGGTEVVVE
notes: recombinant rabbit IgG made in HEK293 cells
Kd [1]: 0.0174 nM
binding result [2]: binds
binding result [3]: binds
binding result [4]: no binding (tested: peptide concentration not stated)
binding result [5]: binds
binding result [6]: binds
binding result [7]: binds
binding result [8]: binds
binding result [9]: binds
binding result [10]: binds
binding result [11]: binds
binding result [12]: binds
binding result [13]: binds
binding result [14]: binds

B2: anti-apelin mAb C24 (antibody, V domains shown)
VH: QSLEESGGRLVTPGTPLTLTCTVSGIDLYTNRVSWVRQAPGKGLDWIGSIGSSPWYASWAQGRFTISKTSTTVNLKITSSTTEDTATYFCAKGGYRPGGSIWGPGTLVTVSS
VL: B1 VL with T6S, E7A, P13A, G16D, T17S, A35G, A41P, K64S, E71Q, E109K
notes: as for B1
Kd [1]: 0.000401 nM
binding result [2]: binds
binding result [3]: binds
binding result [4]: no binding (tested: peptide concentration not stated)
binding result [5]: binds
binding result [6]: binds
binding result [7]: binds
binding result [8]: binds
binding result [9]: binds
binding result [10]: binds
binding result [11]: binds
binding result [12]: binds
binding result [13]: binds
binding result [14]: binds
binding result [15]: no binding (tested: peptide concentration not stated)

B3: anti-apelin mAb C25 (antibody, V domains shown)
VH: B2 VH with R9G, V33M, D45E, Y56F, Q61L, S80P, G99A, I101V
VL: B1 VL with Y50F, S94N, E109K
notes: as for B1
Kd [1]: 0.0508 nM
binding result [2]: binds
binding result [3]: binds
binding result [4]: no binding (tested: peptide concentration not stated)
binding result [5]: binds
binding result [6]: binds
binding result [7]: binds
binding result [8]: binds
binding result [9]: binds
binding result [10]: binds
binding result [11]: binds
binding result [12]: binds
binding result [13]: binds
binding result [14]: binds
binding result [15]: no binding (tested: peptide concentration not stated)

B4: humanized anti-apelin mAb A31 (human IgG1 backbone) (antibody, V domains shown)
VH: QSLEESGGGLVQPGGSLRLSCAVSGIDLYSNRMSWVRQAPGKGLEWVGSIGSSPWYASWAQGRFTISRDNSNTVYLQMNSLTAEDTATYFCAKGGYRPGASVWGQGTLVTVSS
VL: DIQLTQSPSSLSASVGDRVTITCQSSQSIYDNNDLAWYQQKPGKTPKRLIYLASSLDSGVPSRFSGSGSGTDFTLTISSLQPEDVATYYCAGGYSGDIYTFGGGTKVEIK
notes: humanized from C8; tested as HEK293 supernatant
IC50 [16]: 25 nM
IC50 [17]: 19.9 nM
Kd [18]: 0.000148 nM

B5: humanized anti-apelin mAb A31 (human IgG4 backbone) (antibody, V domains shown)
VH: B4 VH
VL: B4 VL
EC50 [19]: 0.21 nM

B6: humanized anti-apelin mAb B24 (human IgG4 backbone) (antibody, V domains shown)
VH: B4 VH with A22T, S30T, M33V, Q77K, L81P, A100G, V102I
VL: B4 VL with A36G
EC50 [19]: 0.79 nM

B7: humanized anti-apelin mAb B25 (human IgG4 backbone) (antibody, V domains shown)
VH: B4 VH with A22T, S30T, Y56F, Q61L, Q77K, L81P
VL: B4 VL with S95N
EC50 [19]: 0.47 nM
